# According to paper PMC3215731:
# Target: TNC-scTNFR2 (trimerization domain of human tenascin C fused to the N-terminus of the TNFR2-selective single-chain TNF) (human) (UniProt P24821)
# Assay: SEC; HPLC-SEC, BioSep-SEC-S2000 7.8x300 column, PBS, 0.5 ml/min, 50 µl sample at 0.1 to 0.5 mg/ml, against standard proteins; oligomerization state under native conditions
substance,measurement,value
TNC-scTNFR2 (trimerization domain of human tenascin C fused to the N-terminus of the TNFR2-selective single-chain TNF) (from UniProt P24821 110-139) (ligand),stoichiometry N,3
